Assay results reported in patent US20170320966A1 (INDUSTRIAL TECHNOLOGY RESEARCH INSTITUTE, published 2017).
Positions count from the first letter of the chain named.

T1: human CD34 protein (Fc tag) (human, UniProt P28906 32-290)
T1 construct: Bought reagent (Sino Biological); also called recombinant human CD34 protein; immobilized human CD34 protein; not shown: Fc tag
T1 sequence (looked up): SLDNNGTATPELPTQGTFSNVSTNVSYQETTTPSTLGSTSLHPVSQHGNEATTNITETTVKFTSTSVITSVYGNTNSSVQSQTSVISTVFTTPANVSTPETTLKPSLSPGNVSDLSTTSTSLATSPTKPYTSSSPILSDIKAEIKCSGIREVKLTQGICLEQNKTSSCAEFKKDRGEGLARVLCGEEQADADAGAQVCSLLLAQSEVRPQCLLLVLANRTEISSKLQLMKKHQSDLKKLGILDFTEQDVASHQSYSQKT

B1: chimeric QBEND/10 (antibody, V domains shown)
VH: QVQLEQSGPELVKPGASVKMSCKASGYTFTSYVIHWVKQKPGQGLEWLGYTNPYNDVTKYNEKFKFKATLTSDKQSTTAYMEFSSLTSEDSAVYYCARYGGLWLYAMDYWGQGTSVTVSS
VL: QLVLTQSSSASFSLGASAKLTCTLSSQHRTFTIEWYQQQPLKPPKYVMELRKDGSHSTGDGIPDRFSGSSSGADRYLSISNIQPEDEAIYICGVGNTIKEQFVYVFGGGTKVTVL
notes: Expressed in NS0 cells; also called chimeric QBEND/10 antibody; parental antibody
B2: humanized QBEND/10 (antibody, V domains shown)
VH: B1 VH with E5V, P9A, K74T, Q75S
VL: B1 VL with S8P, L41E, T58K, N81S, G108T
notes: Expressed in NS0 cells; also called resurfaced QBEND/10; humanized QBEND/10 antibody

Tests used:
[1] = biological target: T1, human CD34 protein (Fc tag); test: SPR (Biacore X), CD34-Fc immobilized on chip, antibody injected, bivalent fit
Method: (§1) FIGS. 8A and 8B show the surface plasma resonance (SPR) analysis of interaction between human CD34 protein and chimeric QBEND/10 (A) or humanized QBEND/10 (B). Each antibody was injected and flowed over a surface chip with immobilized human CD34 protein at a flow rate of 30 μl/min. The resulting SPR sensorgrams were analyzed to determine the association/dissociation rate constants using the analysis program (BIAevaluation 3.2) provided by the manufacturer.
(§2) The binding kinetics of QBEND/10 antibodies to the human CD34 protein (Fc tag) (Sino Biological Incorporation, Beijing, China) were measured by performing the Biacore system (Biacore X, GE Healthcare, South Logan, Utah, USA) in the electrophoresis running buffer HBS-EP (10 mM HEPES, pH 7.4; 150 mM NaCl; 3 mM EDTA; 0.005% surfactant P20). In Brief, human CD34 protein was immobilized onto a CMS sensor chip via amine coupling to a level of 1200 response units (RU), and purified antibodies with different concentrations were injected at a flow rate of 30 μl/min. The surface was regenerated by injection of 15 μl of 10 mM glycine-HCl, pH 2.5. Then, the sensorgrams obtained at each concentration were evaluated by the program BIA Evaluation 3.2 (GE Healthcare, South Logan, Utah, USA). The binding data were fitted with a 2:1 (bivalent) binding model to calculate the affinity constant KD, which was defined as the ratio of dissociation rate (koff)/association rate (kₒₙ).

[2] = biological target: T1, human CD34 protein (Fc tag); test: SPR (Biacore X), CD34-Fc immobilized on chip
Method: as §1
as §2, with “The binding data were fitted with a 2:1 (bivalent) binding model to calculate the affinity constant KD, which was defined as the ratio of dissociation rate (koff)/association rate (kₒₙ).” left out

Kd [1] [nM] | koff [1] [s⁻¹] | kon [1] [M⁻¹ s⁻¹] | fold increase of kon against chimeric QBEND/10 [2] [fold] | Binder
14.7 | 0.000262 | 17800 |  | B1
7.34 | 0.000268 | 36600 | 2 | B2
